Key:
[1] = biological target: MBP-EcMinC-Aahelix3 (E. coli | A. aeolicus) (UniProt P18196); test: SEC-MALS; MALLS and SEC (Fig. S4)
[2] = biological target: the molecule itself; test: crystal structure; hanging-drop vapor diffusion at 20 °C, 0.1 M Tris-HCl pH 7.2, 0.44 M sodium/potassium tartrate; 3.0 Å; dimer in the asymmetric unit
[3] = biological target: the molecule itself; test: SEC-MALS; MALLS and SEC (Fig. S4)

“MBP-EcMinC-Aahelix3 (from UniProt P18196 1-231; O67034 82-201)” showed a stoichiometry N [1] of 2.

B1: C-terminal domain of MinC from Escherichia coli (EcMinCCTD) (domain or fragment, E. coli)
chain: PVTKTRLIDTPVRSGQRIYAPQCDLIVTSHVSAGAELIADGNIHVYGMMRGRALAGASGDRETQIFCTNLMAELVSIAGEYWLSDQIPAEFYGKAARLQLVENALTVQPLN
notes: MinC, E. coli K12; C-terminal domain, a degradation fragment of ~13 kD of full-length MinC-6xHis; residues 122-231 are named for the superposition with TmMinCCTD; Crystals grew from full-length MinC-6xHis (pET22b-MinC) that was degraded over 3-6 weeks; source: E. coli BL21(DE3), full-length MinC-6xHis purified (Ni-agarose, SEC); degraded to the C-terminal domain during crystallization; not shown: …
B1: binds [2].

B2: MBP-EcMinC (natural protein, E. coli, UniProt P18196 1-231, looked up)
chain: MSNTPIELKGSSFTLSVVHLHEAEPKVIHQALEDKIAQAPAFLKHAPVVLNVSALEDPVNWSAMHKAVSATGLRVIGVSGCKDAQLKAEIEKMGLPILTEGKEKAPRPAPTPQAPAQNTTPVTKTRLIDTPVRSGQRIYAPQCDLIVTSHVSAGAELIADGNIHVYGMMRGRALAGASGDRETQIFCTNLMAELVSIAGEYWLSDQIPAEFYGKAARLQLVENALTVQPLN
notes: called full-length EcMinC; Modified pET-28b with MBP in place of the N-terminal His-tag; source: E. coli BL21(DE3), purified (Ni-agarose, SEC); not shown: MBP, N-terminal, kept
B2 was tested, and the “stoichiometry N” value [3] was 2.
